Test results taken from the Human Domainome abundance scans (Beltran et al. 2025).
± gives the uncertainty stated by the source.

B1: Histone H1t, residues 44 to 112; numbered along this chain, P22492 (parent)
chain: VSKLITEALSVSQERVGMSLVALKKALAAAGYDVEKNNSRIKLSLKSLVNKGILVQTRGTGASGSFKLS

Variants of: B1
Experiment: abundance fitness (aPCA) (normalised: wild type 0, dead -1); higher = more abundant; growth selection in yeast, the domain comes from the species named
Conditions: Homo sapiens

Variant	abundance fitness
VSKLITEALSVSQERVGMSLVALKKALAAAGYDVEKNNSRIKLSAKSLVNKGILVQTRGTGASGSFKLS [L45A]	-0.643 ± 0.082
VSKLITEALSVSQERVGMSLVALKKALAAAGYDVEKNNSRIKLSSKSLVNKGILVQTRGTGASGSFKLS [L45S]	-0.742 ± 0.046
VSKLITEALSVSQERVGMSLVALKKALAAAGYDVEKNNSRIKLSWKSLVNKGILVQTRGTGASGSFKLS [L45W]	-0.125 ± 0.092
VSKLITEALSVSQERVGMSLVALKKALAAAGYDVEKNNSRIKLSMKSLVNKGILVQTRGTGASGSFKLS [L45M]	-0.386 ± 0.089
VSKLITEALSVSQERVGMSLVALKKALAAAGYDVEKNNSRIKLSKKSLVNKGILVQTRGTGASGSFKLS [L45K]	-0.859 ± 0.15
VSKLITEALSVSQERVGMSLVALKKALAAAGYDVEKNNSRIKLSTKSLVNKGILVQTRGTGASGSFKLS [L45T]	-0.63 ± 0.062
VSKLITEALSVSQERVGMSLVALKKALAAAGYDVEKNNSRIKLSHKSLVNKGILVQTRGTGASGSFKLS [L45H]	-1.2 ± 0.48
VSKLITEALSVSQERVGMSLVALKKALAAAGYDVEKNNSRIKLSPKSLVNKGILVQTRGTGASGSFKLS [L45P]	-0.46 ± 0.049
VSKLITEALSVSQERVGMSLVALKKALAAAGYDVEKNNSRIKLSCKSLVNKGILVQTRGTGASGSFKLS [L45C]	-0.425 ± 0.21
VSKLITEALSVSQERVGMSLVALKKALAAAGYDVEKNNSRIKLSEKSLVNKGILVQTRGTGASGSFKLS [L45E]	-0.978 ± 0.46
VSKLITEALSVSQERVGMSLVALKKALAAAGYDVEKNNSRIKLSRKSLVNKGILVQTRGTGASGSFKLS [L45R]	-0.915 ± 0.11
VSKLITEALSVSQERVGMSLVALKKALAAAGYDVEKNNSRIKLSIKSLVNKGILVQTRGTGASGSFKLS [L45I]	-0.417 ± 0.28
VSKLITEALSVSQERVGMSLVALKKALAAAGYDVEKNNSRIKLSFKSLVNKGILVQTRGTGASGSFKLS [L45F]	-0.372 ± 0.081
VSKLITEALSVSQERVGMSLVALKKALAAAGYDVEKNNSRIKLSGKSLVNKGILVQTRGTGASGSFKLS [L45G]	-0.574 ± 0.15
VSKLITEALSVSQERVGMSLVALKKALAAAGYDVEKNNSRIKLSQKSLVNKGILVQTRGTGASGSFKLS [L45Q]	-0.782 ± 0.24
VSKLITEALSVSQERVGMSLVALKKALAAAGYDVEKNNSRIKLSVKSLVNKGILVQTRGTGASGSFKLS [L45V]	-0.141 ± 0.11
VSKLITEALSVSQERVGMSLVALKKALAAAGYDVEKNNSRIKLSNKSLVNKGILVQTRGTGASGSFKLS [L45N]	-0.897 ± 0.42
VSKLITEALSVSQERVGMSLVALKKALAAAGYDVEKNNSRIKNSLKSLVNKGILVQTRGTGASGSFKLS [L43N]	0.266 ± 0.044
VSKLITEALSVSQERVGMSLVALKKALAAAGYDVEKNNSRIKHSLKSLVNKGILVQTRGTGASGSFKLS [L43H]	0.015 ± 0.043
VSKLITEALSVSQERVGMSLVALKKALAAAGYDVEKNNSRIKQSLKSLVNKGILVQTRGTGASGSFKLS [L43Q]	0.172 ± 0.027
VSKLITEALSVSQERVGMSLVALKKALAAAGYDVEKNNSRIKESLKSLVNKGILVQTRGTGASGSFKLS [L43E]	0.229 ± 0.035
VSKLITEALSVSQERVGMSLVALKKALAAAGYDVEKNNSRIKKSLKSLVNKGILVQTRGTGASGSFKLS [L43K]	0.181 ± 0.026
VSKLITEALSVSQERVGMSLVALKKALAAAGYDVEKNNSRIKVSLKSLVNKGILVQTRGTGASGSFKLS [L43V]	-0.617 ± 0.38
VSKLITEALSVSQERVGMSLVALKKALAAAGYDVEKNNSRIKPSLKSLVNKGILVQTRGTGASGSFKLS [L43P]	-0.483 ± 0.033
VSKLITEALSVSQERVGMSLVALKKALAAAGYDVEKNNSRIKDSLKSLVNKGILVQTRGTGASGSFKLS [L43D]	0.036 ± 0.13
VSKLITEALSVSQERVGMSLVALKKALAAAGYDVEKNNSRIKGSLKSLVNKGILVQTRGTGASGSFKLS [L43G]	-0.061 ± 0.036

Variant	abundance fitness
VSKLITEALSVSQERVGMSLVALKKALAAAGYDVEKNNSRIKSSLKSLVNKGILVQTRGTGASGSFKLS [L43S]	0.034 ± 0.088
VSKLITEALSVSQERVGMSLVALKKALAAAGYDVEKNNSRIKASLKSLVNKGILVQTRGTGASGSFKLS [L43A]	0.18 ± 0.032
VSKLITEALSVSQERVGMSLVALKKALAAAGYDVEKNNSRIKRSLKSLVNKGILVQTRGTGASGSFKLS [L43R]	0.049 ± 0.032
VSKLITEALSVSQERVGMSLVALKKALAAAGYDVEKNNSRIKLSLDSLVNKGILVQTRGTGASGSFKLS [K46D]	-0.329 ± 0.28
VSKLITEALSVSQERVGMSLVALKKALAAAGYDVEKNNSRIKLSLLSLVNKGILVQTRGTGASGSFKLS [K46L]	-0.178 ± 0.029
VSKLITEALSVSQERVGMSLVALKKALAAAGYDVEKNNSRIKLSLCSLVNKGILVQTRGTGASGSFKLS [K46C]	-0.628 ± 0.15
VSKLITEALSVSQERVGMSLVALKKALAAAGYDVEKNNSRIKLSLASLVNKGILVQTRGTGASGSFKLS [K46A]	-0.01 ± 0.067
VSKLITEALSVSQERVGMSLVALKKALAAAGYDVEKNNSRIKLSLESLVNKGILVQTRGTGASGSFKLS [K46E]	-0.053 ± 0.14
VSKLITEALSVSQERVGMSLVALKKALAAAGYDVEKNNSRIKLSLMSLVNKGILVQTRGTGASGSFKLS [K46M]	-0.23 ± 0.038
VSKLITEALSVSQERVGMSLVALKKALAAAGYDVEKNNSRIKLSLISLVNKGILVQTRGTGASGSFKLS [K46I]	-0.129 ± 0.056
VSKLITEALSVSQERVGMSLVALKKALAAAGYDVEKNNSRIKLSLGSLVNKGILVQTRGTGASGSFKLS [K46G]	-0.875 ± 0.16
VSKLITEALSVSQERVGMSLVALKKALAAAGYDVEKNNSRIKLSLHSLVNKGILVQTRGTGASGSFKLS [K46H]	-0.35 ± 0.12
VSKLITEALSVSQERVGMSLVALKKALAAAGYDVEKNNSRQKLSLKSLVNKGILVQTRGTGASGSFKLS [I41Q]	-0.556 ± 0.049
VSKLITEALSVSQERVGMSLVALKKALAAAGYDVEKNNSRVKLSLKSLVNKGILVQTRGTGASGSFKLS [I41V]	-0.308 ± 0.041
VSKLITEALSVSQERVGMSLVALKKALAAAGYDVEKNNSRWKLSLKSLVNKGILVQTRGTGASGSFKLS [I41W]	-0.113 ± 0.043
VSKLITEALSVSQERVGMSLVALKKALAAAGYDVEKNNSRRKLSLKSLVNKGILVQTRGTGASGSFKLS [I41R]	-0.514 ± 0.034
VSKLITEALSVSQERVGMSLVALKKALAAAGYDVEKNNSRPKLSLKSLVNKGILVQTRGTGASGSFKLS [I41P]	-0.394 ± 0.035
VSKLITEALSVSQERVGMSLVALKKALAAAGYDVEKNNSRNKLSLKSLVNKGILVQTRGTGASGSFKLS [I41N]	-0.542 ± 0.052
VSKLITEALSVSQERVGMSLVALKKALAAAGYDVEKNNSRYKLSLKSLVNKGILVQTRGTGASGSFKLS [I41Y]	-0.43 ± 0.057
VSKLITEALSVSQERVGMSLVALKKALAAAGYDVEKNNSRTKLSLKSLVNKGILVQTRGTGASGSFKLS [I41T]	-0.56 ± 0.039
VSKLITEALSVSQERVGMSLVALKKALAAAGYDVEKNNSRIKLCLKSLVNKGILVQTRGTGASGSFKLS [S44C]	0.217 ± 0.18
VSKLITEALSVSQERVGMSLVALKKALAAAGYDVEKNNSRIKLTLKSLVNKGILVQTRGTGASGSFKLS [S44T]	0.081 ± 0.036
VSKLITEALSVSQERVGMSLVALKKALAAAGYDVEKNNSRIKLRLKSLVNKGILVQTRGTGASGSFKLS [S44R]	-0.173 ± 0.12
VSKLITEALSVSQERVGMSLVALKKALAAAGYDVEKNNSRIKLPLKSLVNKGILVQTRGTGASGSFKLS [S44P]	-0.636 ± 0.046
VSKLITEALSVSQERVGMSLVALKKALAAAGYDVEKNNSRIKLELKSLVNKGILVQTRGTGASGSFKLS [S44E]	0.175 ± 0.29
VSKLITEALSVSQERVGMSLVALKKALAAAGYDVEKNNSRIKLALKSLVNKGILVQTRGTGASGSFKLS [S44A]	0.324 ± 0.2

Variant	abundance fitness
VSKLITEALSVSQERVGMSLVALKKALAAAGYDVEKNNSRIKLMLKSLVNKGILVQTRGTGASGSFKLS [S44M]	-0.047 ± 0.065
VSKLITEALSVSQERVGMSLVALKKALAAAGYDVEKNNSRIKLYLKSLVNKGILVQTRGTGASGSFKLS [S44Y]	-0.279 ± 0.072
VSKLITEALSVSQERVGMSLVALKKALAAAGYDVEKNNSRIKLLLKSLVNKGILVQTRGTGASGSFKLS [S44L]	-0.108 ± 0.055
VSKLITEALSVSQERVGMSLVALKKALAAAGYDVEKNNSRIKLWLKSLVNKGILVQTRGTGASGSFKLS [S44W]	-0.426 ± 0.24
VSKLITEALSVSQERVGMSLVALKKALAAAGYDVEKNNSRIKLILKSLVNKGILVQTRGTGASGSFKLS [S44I]	-0.239 ± 0.072
VSKLITEALSVSQERVGMSLVALKKALAAAGYDVEKNNSRIKLVLKSLVNKGILVQTRGTGASGSFKLS [S44V]	0.16 ± 0.23
VSKLITEALSVSQERVGMSLVALKKALAAAGYDVEKNNSRIKLFLKSLVNKGILVQTRGTGASGSFKLS [S44F]	-0.298 ± 0.098
VSKLITEALSVSQERVGMSLVALKKALAAAGYDVEKNNSRIKLNLKSLVNKGILVQTRGTGASGSFKLS [S44N]	-0.148 ± 0.043
VSKLITEALSVSQERVGMSLVALKKALAAAGYDVEKNNSRIKLHLKSLVNKGILVQTRGTGASGSFKLS [S44H]	-0.126 ± 0.044
VSKLITEALSVSQERVGMSLVALKKALAAAGYDVEKNNSRIKLQLKSLVNKGILVQTRGTGASGSFKLS [S44Q]	-0.072 ± 0.046
VSKLITEALSVSQERVGMSLVALKKALAAAGYDVEKNNSRIYLSLKSLVNKGILVQTRGTGASGSFKLS [K42Y]	-0.138 ± 0.086
VSKLITEALSVSQERVGMSLVALKKALAAAGYDVEKNNSRIGLSLKSLVNKGILVQTRGTGASGSFKLS [K42G]	-0.188 ± 0.039
VSKLITEALSVSQERVGMSLVALKKALAAAGYDVEKNNSRIALSLKSLVNKGILVQTRGTGASGSFKLS [K42A]	-0.098 ± 0.025
VSKLITEALSVSQERVGMSLVALKKALAAAGYDVEKNNSRIILSLKSLVNKGILVQTRGTGASGSFKLS [K42I]	0.094 ± 0.12
VSKLITEALSVSQERVGMSLVALKKALAAAGYDVEKNNSRIDLSLKSLVNKGILVQTRGTGASGSFKLS [K42D]	-0.096 ± 0.065
VSKLITEALSVSQERVGMSLVALKKALAAAGYDVEKNNSRITLSLKSLVNKGILVQTRGTGASGSFKLS [K42T]	-0.045 ± 0.035
VSKLITEALSVSQERVGMSLVALKKALAAAGYDVEKNNSRIELSLKSLVNKGILVQTRGTGASGSFKLS [K42E]	0.182 ± 0.038
VSKLITEALSVSQERVGMSLVALKKALAAAGYDVEKNNSRILLSLKSLVNKGILVQTRGTGASGSFKLS [K42L]	0.048 ± 0.031
VSKLITEALSVSQERVGMSLVALKKALAAAGYDVEKNNSRIMLSLKSLVNKGILVQTRGTGASGSFKLS [K42M]	0.14 ± 0.05
VSKLITEALSVSQERVGMSLVALKKALAAAGYDVEKNNSRIHLSLKSLVNKGILVQTRGTGASGSFKLS [K42H]	-0.158 ± 0.073
VSKLITEALSVSQERVGMSLVALKKALAAAGYDVEKNNSRIVLSLKSLVNKGILVQTRGTGASGSFKLS [K42V]	-0.024 ± 0.028
VSKLITEALSVSQERVGMSLVALKKALAAAGYDVEKNNSRINLSLKSLVNKGILVQTRGTGASGSFKLS [K42N]	-0.379 ± 0.19
VSKLITEALSVSQERVGMSLVALKKALAAAGYDVEKNNSRIFLSLKSLVNKGILVQTRGTGASGSFKLS [K42F]	-0.413 ± 0.12
VSKLITEALSVSQERVGMSLVALKKALAAAGYDVEKNNSRIRLSLKSLVNKGILVQTRGTGASGSFKLS [K42R]	-0.125 ± 0.041
VSKLITEALSVSQERVGMSLVALKKALAAAGYDVEKNNSRIPLSLKSLVNKGILVQTRGTGASGSFKLS [K42P]	-0.682 ± 0.029
VSKLITEALSVSQERVGMSLVALKKALAAAGYDVEKNNSRISLSLKSLVNKGILVQTRGTGASGSFKLS [K42S]	-0.108 ± 0.031
